# B1: NOP58 (protein, UniProt Q9Y2X3 1-529, looked up)
# Nucleolar protein 58: MLVLFETSVGYAIFKVLNEKKLQEVDSLWKEFETPEKANKIVKLKHFEKFQDTAEALAAFTALMEGKINKQLKKVLKKIVKEAHEPLAVADAKLGGVIKEKLNLSCIHSPVVNELMRGIRSQMDGLIPGVEPREMAAMCLGLAHSLSRYRLKFSADKVDTMIVQAISLLDDLDKELNNYIMRCREWYGWHFPELGKIISDNLTYCKCLQKVGDRKNYASAKLSELLPEEVEAEVKAAAEISMGTEVSEEDICNILHLCTQVIEISEYRTQLYEYLQNRMMAIAPNVTVMVGELVGARLIAHAGSLLNLAKHAASTVQILGAEKALFRALKSRRDTPKYGLIYHASLVGQTSPKHKGKISRMLAAKTVLAIRYDAFGEDSSSAMGVENRAKLEARLRTLEDRGIRKISGTGKALAKTEKYEHKSEVKTYDPSGDSTLPTCSKKRKIEQVDKEDEITEKKAKKAKIKVKVEEEEEEKVAEEEETSVKKKKKRGKKKHIKEEPLSEEEPCTSTAIASPEKKKKKKKKRENED
# B2: MMS19 (protein, UniProt Q96T76 2-1030, looked up)
# MMS19 nucleotide excision …: AAAAAVEAAAPMGALWGLVHDFVVGQQEGPADQVAADVKSGNYTVLQVVEALGSSLENPEPRTRARAIQLLSQVLLHCHTLLLEKEVVHLILFYENRLKDHHLVIPSVLQGLKALSLCVALPPGLAVSVLKAIFQEVHVQSLPQVDRHTVYNIITNFMRTREEELKSLGADFTFGFIQVMDGEKDPRNLLVAFRIVHDLISRDYSLGPFVEELFEVTSCYFPIDFTPPPNDPHGIQREDLILSLRAVLASTPRFAEFLLPLLIEKVDSEVLSAKLDSLQTLNACCAVYGQKELKDFLPSLWASIRREVFQTASERVEAEGLAALHSLTACLSRSVLRADAEDLLDSFLSNILQDCRHHLCEPDMKLVWPSAKLLQAAAGASARACDSVTSNVLPLLLEQFHKHSQSSQRRTILEMLLGFLKLQQKWSYEDKDQRPLNGFKDQLCSLVFMALTDPSTQLQLVGIRTLTVLGAQPDLLSYEDLELAVGHLYRLSFLKEDSQSCRVAALEASGTLAALYPVAFSSHLVPKLAEELRVGESNLTNGDEPTQCSRHLCCLQALSAVSTHPSIVKETLPLLLQHLWQVNRGNMVAQSSDVIAVCQSLRQMAEKCQQDPESCWYFHQTAIPCLLALAVQASMPEKEPSVLRKVLLEDEVLAAMVSVIGTATTHLSPELAAQSVTHIVPLFLDGNVSFLPENSFPSRFQPFQDGSSGQRRLIALLMAFVCSLPRNVEIPQLNQLMRELLELSCCHSCPFSSTAAAKCFAGLLNKHPAGQQLDEFLQLAVDKVEAGLGSGPCRSQAFTLLLWVTKALVLRYHPLSSCLTARLMGLLSDPELGPAAADGFSLLMSDCTDVLTRAGHAEVRIMFRQRFFTDNVPALVQGFHAAPQDVKPNYLKGLSHVLNRLPKPVLLPELPTLLSLLLEALSCPDCVVQLSTLSCLQPLLLEAPQVMSLHVDTLVTKFLNLSSSPSMAVRIAALQCMHALTRLPTPVLLPYKPQVIRALAKPLDDKKRLVRKEAVSARGEWFLLGSPGS
# B3: CPT1A (protein, UniProt P50416 2-773, looked up)
# Carnitine …: AEAHQAVAFQFTVTPDGIDLRLSHEALRQIYLSGLHSWKKKFIRFKNGIITGVYPASPSSWLIVVVGVMTTMYAKIDPSLGIIAKINRTLETANCMSSQTKNVVSGVLFGTGLWVALIVTMRYSLKVLLSYHGWMFTEHGKMSRATKIWMGMVKIFSGRKPMLYSFQTSLPRLPVPAVKDTVNRYLQSVRPLMKEEDFKRMTALAQDFAVGLGPRLQWYLKLKSWWATNYVSDWWEEYIYLRGRGPLMVNSNYYAMDLLYILPTHIQAARAGNAIHAILLYRRKLDREEIKPIRLLGSTIPLCSAQWERMFNTSRIPGEETDTIQHMRDSKHIVVYHRGRYFKVWLYHDGRLLKPREMEQQMQRILDNTSEPQPGEARLAALTAGDRVPWARCRQAYFGRGKNKQSLDAVEKAAFFVTLDETEEGYRSEDPDTSMDSYAKSLLHGRCYDRWFDKSFTFVVFKNGKMGLNAEHSWADAPIVAHLWEYVMSIDSLQLGYAEDGHCKGDINPNIPYPTRLQWDIPGECQEVIETSLNTANLLANDVDFHSFPFVAFGKGIIKKCRTSPDAFVQLALQLAHYKDMGKFCLTYEASMTRLFREGRTETVRSCTTESCDFVRAMVDPAQTVEQRLKLFKLASEKHQHMYRLAMTGSGIDRHLFCLYVVSKYLAVESPFLKEVLSEPWRLSTSQTPQQQVELFDLENNPEYVSSGGGFGPVADDGYGVSYILVGENLINFHISSKFSCPETDSHRFGRHLKEAMTDIITLFGLSSNSKK
# B4: BBX (protein, UniProt Q8WY36 1-941, looked up)
# HMG box transcription factor …: MKGSNRNKDHSAEGEGVGKRPKRKCLQWHPLLAKKLLDFSEEEEEEDEEEDIDKVQLLGADGLEQDVGETEDDESPEQRARRPMNAFLLFCKRHRSLVRQEHPRLDNRGATKILADWWAVLDPKEKQKYTDMAKEYKDAFMKANPGYKWCPTTNKPVKSPTPTVNPRKKLWAFPSDSSRDLPSPKKAKTEEMPQLNFGMADPTQMGGLSMLLLAGEHALGTPEVSSGTCRPDVSESPELRQKSPLFQFAEISSSTSHSDASTKQCQTSALFQFAEISSNTSQLGGAEPVKRCGKSALFQLAEMCLASEGMKMEESKLIKAKESDGGRIKELEKGKEEKEIKMEKTDETRLQKEAEFEKSAKENLRDSKELRNFEALQIDDIMAIKMEDPKEIRKEELEEDHKCSHFPDFSYSASSKIIISDVPSRKDHMCHPHGIMIIEDPAALNKPEKLKKKKKKSKMDRHGNDKSTPKKTCKKRQSSESDIESVIYTIEAVAKGDWGIEKLGDTPRKKVRTSSSGKGSILDAKPPKKKVKSREKKMSKEKSSDTTKESRPPDFISISASKNISGETPEGIKAEPLTPMEDALPPSLSGQAKPEDSDCHRKIETCGSRKSERSCKGALYKTLVSEGMLTSLRANVDRGKRSSGKGNSSDHEGCWNEESWTFSQSGTSGSKKFKKTKPKEDCLLGSAKLDEEFEKKFNSLPQYSPVTFDRKCVPVPRKKKKTGNVSSEPTKTSKGPFQSQKKNLFHKIVSKYKHKKEKPNVPEKGSGDKWSNKQLFLDAIHPTEAIFSEDRNTMEPVHKVKNIPSIFNTPEPTTTQEPLVGSQKRKARKTKITHLVRTADGRVSPAGGTLDDKPKEQLQRSLPKATETDCNDKCSHNTEVGETRSSTPEMPAVSAFFSLAALAEVAAMENVHRGQRSTPLTHDGQPKEMPQAPVLISCADQ
# B5: RASAL2 (protein, UniProt Q9UJF2 1-1139, looked up)
# Ras GTPase-activating protein …: MQTPEVPAERSPRRRSISGTSTSEKPNSMDTANTSPFKVPGFFSKRLKGSIKRTKSQSKLDRNTSFRLPSLRSTDDRSRGLPKLKESRSHESLLSPCSTVECLDLGRGEPVSVKPLHSSILGQDFCFEVTYLSGSKCFSCNSASERDKWMENLRRTVQPNKDNCRRAENVLRLWIIEAKDLAPKKKYFCELCLDDTLFARTTSKTKADNIFWGEHFEFFSLPPLHSITVHIYKDVEKKKKKDKNNYVGLVNIPTASVTGRQFVEKWYPVSTPTPNKGKTGGPSIRIKSRFQTITILPMEQYKEFAEFVTSNYTMLCSVLEPVISVRNKEELACALVHILQSTGRAKDFLTDLVMSEVDRCGEHDVLIFRENTIATKSIEEYLKLVGQQYLHDALGEFIKALYESDENCEVDPSKCSSSELIDHQSNLKMCCELAFCKIINSYCVFPRELKEVFASWKQQCLNRGKQDISERLISASLFLRFLCPAIMSPSLFNLMQEYPDDRTSRTLTLIAKVIQNLANFAKFGNKEEYMAFMNDFLEHEWGGMKRFLLEISNPDTISNTPGFDGYIDLGRELSVLHSLLWEVVSQLDKGENSFLQATVAKLGPLPRVLADITKSLTNPTPIQQQLRRFTEHNSSPNVSGSLSSGLQKIFEDPTDSDLHKLKSPSQDNTDSYFRGKTLLLVQQASSQSMTYSEKDERESSLPNGRSVSLMDLQDTHAAQVEHASVMLDVPIRLTGSQLSITQVASIKQLRETQSTPQSAPQVRRPLHPALNQPGGLQPLSFQNPVYHLNNPIPAMPKASIDSSLENLSTASSRSQSNSEDFKLSGPSNSSMEDFTKRSTQSEDFSRRHTVPDRHIPLALPRQNSTGQAQIRKVDQGGLGARAKAPPSLPHSASLRSTGSMSVVSAALVAEPVQNGSRSRQQSSSSRESPVPKVRAIQRQQTQQVQSPVDSATMSPVERTAAWVLNNGQYEEDVEETEQNLDEAKHAEKYEQEITKLKERLRVSSRRLEEYERRLLVQEQQMQKLLLEYKARLEDSEERLRRQQEEKDSQMKSIISRLMAVEEELKKDHAEMQAVIDAKQKIIDAQEKRIVSLDSANTRLMSALTQVKERYSMQVRNGISPTNPTKLSITENGEFKNSSC
# B6: DDX20 (protein, UniProt Q9UHI6 1-824, looked up)
# Probable ATP-dependent RNA …: MAAAFEASGALAAVATAMPAEHVAVQVPAPEPTPGPVRILRTAQDLSSPRTRTGDVLLAEPADFESLLLSRPVLEGLRAAGFERPSPVQLKAIPLGRCGLDLIVQAKSGTGKTCVFSTIALDSLVLENLSTQILILAPTREIAVQIHSVITAIGIKMEGLECHVFIGGTPLSQDKTRLKKCHIAVGSPGRIKQLIELDYLNPGSIRLFILDEADKLLEEGSFQEQINWIYSSLPASKQMLAVSATYPEFLANALTKYMRDPTFVRLNSSDPSLIGLKQYYKVVNSYPLAHKVFEEKTQHLQELFSRIPFNQALVFSNLHSRAQHLADILSSKGFPAECISGNMNQNQRLDAMAKLKHFHCRVLISTDLTSRGIDAEKVNLVVNLDVPLDWETYMHRIGRAGRFGTLGLTVTYCCRGEEENMMMRIAQKCNINLLPLPDPIPSGLMEECVDWDVEVKAAVHTYGIASVPNQPLKKQIQKIERTLQIQKAHGDHMASSRNNSVSGLSVKSKNNTKQKLPVKSHSECGIIEKATSPKELGCDRQSEEQMKNSVQTPVENSTNSQHQVKEALPVSLPQIPCLSSFKIHQPYTLTFAELVEDYEHYIKEGLEKPVEIIRHYTGPGDQTVNPQNGFVRNKVIEQRVPVLASSSQSGDSESDSDSYSSRTSSQSKGNKSYLEGSSDNQLKDSESTPVDDRISLEQPPNGSDTPNPEKYQESPGIQMKTRLKEGASQRAKQSRRNLPRRSSFRLQTEAQEDDWYDCHREIRLSFSDTYQDYEEYWRAYYRAWQEYYAAASHSYYWNAQRHPSWMAAYHMNTIYLQEMMHSNQ
# Test system: GFP-14-3-3β and its binding proteins
# Experiment: GFP-14-3-3β co-IP with LC-MS/MS label-free quantification, untreated versus PP1c-treated
# Parameters: species or system human
# Details: PP1 vs untreated; LFQ intensities; 3 replicates each
row,Molecule,"Difference (log2), PP1 vs untreated"
1,B1,0.6296 log2
2,B2,0.6094 log2
3,B3,0.596 log2
4,B4,0.6283 log2
5,B5,0.5963 log2

# Same assay, conditions: log2 difference; pairwise comparison PP1 vs untreated, label-free quantification, 3 replicates each
row,Molecule,"Difference (log2), PP1 vs untreated"
1,B6,2.218

# Test system: GFP-14-3-3β
# Experiment: GFP-14-3-3β co-IP with LC-MS/MS, untreated GFP-14-3-3β versus GFP control (14-3-3 interactome)
# Format: binding, human
# Details: log2 difference; pairwise comparison untreated vs GFP, label-free quantification, 3 replicates each
row,Molecule,"Difference (log2), untreated vs GFP"
1,B6,-0.1781

# Same assay, conditions: untreated vs GFP; LFQ intensities; 3 replicates each
row,Molecule,"Difference (log2), untreated vs GFP"
1,B1,1.325 log2
2,B2,1.425 log2
3,B3,1.035 log2
4,B4,0.1239 log2
5,B5,1.812 log2

# — article PMC7367873, “Dissecting the sequence determinants for dephosphorylation by the catalytic subunits of phosphatases PP1 and PP2A” (Nature Communications, 2020)
